Columns and labels:
human Ang2 [1] = biological target: T1, human Ang2 (human, UniProt O15123 19-496, limits assumed); test: ELISA, relative binding activity; 120 mg/mL formula, 25 C, 2M
T1 construct: Bought proteins; also called hAng2-biotin; Ang2-Bio (Sino)
T1 sequence (looked up): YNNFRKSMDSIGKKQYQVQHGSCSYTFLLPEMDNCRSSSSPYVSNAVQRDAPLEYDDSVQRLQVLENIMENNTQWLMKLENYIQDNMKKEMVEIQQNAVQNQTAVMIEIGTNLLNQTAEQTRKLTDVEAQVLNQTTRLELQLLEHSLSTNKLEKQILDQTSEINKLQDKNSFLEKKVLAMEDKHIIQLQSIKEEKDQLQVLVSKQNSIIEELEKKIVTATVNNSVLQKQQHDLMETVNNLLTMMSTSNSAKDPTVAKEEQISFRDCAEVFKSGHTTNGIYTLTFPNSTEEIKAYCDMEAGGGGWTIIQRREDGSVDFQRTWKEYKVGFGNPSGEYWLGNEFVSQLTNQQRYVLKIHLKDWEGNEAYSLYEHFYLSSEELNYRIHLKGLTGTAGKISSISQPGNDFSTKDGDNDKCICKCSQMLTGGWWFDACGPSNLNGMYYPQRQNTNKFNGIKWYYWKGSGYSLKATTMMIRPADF

human VEGF165 [2] = biological target: T2, human VEGF165 (human, UniProt P15692-4 27-191); test: as above
T2 construct: all are put under this molecule; also called VEGF A; VEGFA
T2 sequence (P15692 other isoform, or with tags, fused parts or gaps limits assumed): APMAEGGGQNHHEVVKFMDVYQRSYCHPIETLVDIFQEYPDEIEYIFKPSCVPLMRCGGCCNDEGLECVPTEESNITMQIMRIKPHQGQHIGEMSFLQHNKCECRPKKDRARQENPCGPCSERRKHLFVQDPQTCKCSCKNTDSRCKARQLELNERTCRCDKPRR

human Ang2 [3] = biological target: T1, human Ang2; test: ELISA, relative binding activity; final formula 40 mg/mL, 40 C, 2W
human VEGF165 [4] = biological target: T2, human VEGF165; test: as above
human Ang2 [5] = biological target: T1, human Ang2; test: ELISA, relative binding activity; IEX04-012 about 40 mg/mL in F1, 40 C, 0 weeks
human VEGF165 [6] = biological target: T2, human VEGF165; test: as above
human Ang2 [7] = biological target: T1, human Ang2; test: ELISA, relative binding activity; 120 mg/mL formula, T0
human VEGF165 [8] = biological target: T2, human VEGF165; test: as above
human Ang2 [9] = biological target: T1, human Ang2; test: ELISA, relative binding activity; IEX04-012 about 40 mg/mL in F10, 40 C, 2 weeks
human VEGF165 [10] = biological target: T2, human VEGF165; test: as above
human Ang2 [11] = biological target: T1, human Ang2; test: ELISA, relative binding activity; IEX04-012 about 40 mg/mL in F10, 40 C, 1 week
human VEGF165 [12] = biological target: T2, human VEGF165; test: as above
human Ang2 [13] = biological target: T1, human Ang2; test: ELISA, relative binding activity; final formula 40 mg/mL, 40 C, 4W
human VEGF165 [14] = biological target: T2, human VEGF165; test: as above
human VEGF165 [15] = biological target: T2, human VEGF165; test: ELISA, relative binding activity; IEX04-012 about 40 mg/mL in F9, 40 C, 0 weeks
human Ang2 [16] = biological target: T1, human Ang2; test: ELISA, relative binding activity; IEX04-012 about 40 mg/mL in F1, 40 C, 1 week
human VEGF165 [17] = biological target: T2, human VEGF165; test: as above
human Ang2 [18] = biological target: T1, human Ang2; test: ELISA, relative binding activity; IEX04-012 about 40 mg/mL in F5, 40 C, 1 week
human VEGF165 [19] = biological target: T2, human VEGF165; test: as above
human Ang2 [20] = biological target: T1, human Ang2; test: ELISA, relative binding activity; IEX04-012 about 40 mg/mL in F8, 40 C, 1 week
human VEGF165 [21] = biological target: T2, human VEGF165; test: as above
human Ang2 [22] = biological target: T1, human Ang2; test: ELISA, relative binding activity; 120 mg/mL formula, 2-8 C, 6M
human VEGF165 [23] = biological target: T2, human VEGF165; test: as above
human Ang2 [24] = biological target: T1, human Ang2; test: ELISA, relative binding activity; IEX04-012 about 40 mg/mL in F7, 40 C, 0 weeks
human VEGF165 [25] = biological target: T2, human VEGF165; test: as above
human Ang2 [26] = biological target: T1, human Ang2; test: ELISA, relative binding activity; 120 mg/mL formula, 25 C, 3M
human VEGF165 [27] = biological target: T2, human VEGF165; test: as above

B1: IEX04-012 (bispecific antibody)
chain: DIQLTQSPSSLSASVGDRVTITCSASQDISNYLNWYQQKPGKAPKVLIYFTSSLHSGVPSRFSGSGSGTDFTLTISSLQPEDFATYYCQQYSTVPWTFGCGTKVEIKGGGGSGGGGSGGGGSGGGGSEVQLVESGGGLVQPGGSLRLSCAASGYDFTHYGMNWVRQAPGKCLEWVGWINTYTGEPTYAADFKRRFTFSLDTSKSTAYLQMNSLRAEDTAVYYCAKYPYYYGTSHWYFDVWGQGTLVTVSSGGGGSGGGGSGGGGSEVQLLESGGGLVQPGGSLRLSCAASGFALDYYAIGWFRQAPGKGLEGVSCISSGEGSTYYADSVKGRFTISRDNSKNTVYLQMNSLRAEDTAVYYCATDSRGDDVACEGLRRNEYDYWGQGTLVTVSS
Relative binding Activity to Ang2 (ELISA, %) (human Ang2 [1]): 84% | Relative binding Activity to VEGF A (ELISA, %) (human VEGF165 [2]): 92% | Relative binding Activity to Ang2 (ELISA, %) (human Ang2 [3]): 86% | Relative binding Activity to VEGF A (ELISA, %) (human VEGF165 [4]): 91% | Relative binding Activity to Ang2 (ELISA, %) (human Ang2 [5]): 100% | Relative binding Activity to VEGF (ELISA, %) (human VEGF165 [6]): 100% | Relative binding Activity to Ang2 (ELISA, %) (human Ang2 [7]): 92% | Relative binding Activity to VEGF A (ELISA, %) (human VEGF165 [8]): 101% | Relative binding Activity to Ang2 (ELISA, %) (human Ang2 [9]): 99% | Relative binding Activity to VEGF (ELISA, %) (human VEGF165 [10]): 99% | Relative binding Activity to Ang2 (ELISA, %) (human Ang2 [11]): 98% | Relative binding Activity to VEGF (ELISA, %) (human VEGF165 [12]): 99% | Relative binding Activity to Ang2 (ELISA, %) (human Ang2 [13]): 74% | Relative binding Activity to VEGF A (ELISA, %) (human VEGF165 [14]): 78% | Relative binding Activity to VEGF (ELISA, %) (human VEGF165 [15]): 100% | Relative binding Activity to Ang2 (ELISA, %) (human Ang2 [16]): 103% | Relative binding Activity to VEGF (ELISA, %) (human VEGF165 [17]): 98% | Relative binding Activity to Ang2 (ELISA, %) (human Ang2 [18]): 82% | Relative binding Activity to VEGF (ELISA, %) (human VEGF165 [19]): 98% | Relative binding Activity to Ang2 (ELISA, %) (human Ang2 [20]): 92% | Relative binding Activity to VEGF (ELISA, %) (human VEGF165 [21]): 101% | Relative binding Activity to Ang2 (ELISA, %) (human Ang2 [22]): 96% | Relative binding Activity to VEGF A (ELISA, %) (human VEGF165 [23]): 99% | Relative binding Activity to Ang2 (ELISA, %) (human Ang2 [24]): 100% | Relative binding Activity to VEGF (ELISA, %) (human VEGF165 [25]): 100% | Relative binding Activity to Ang2 (ELISA, %) (human Ang2 [26]): 75% | Relative binding Activity to VEGF A (ELISA, %) (human VEGF165 [27]): 106%

Source: patent EP4628097A1 (Innovent Biologics (Suzhou) Co., Ltd., dated 2025)
